Measurements: patent US11608490B2, “Composition for enhancing hair growth-inducing ability of adipose stem cells comprising udenafil as active ingredient” (INDUSTRY-ACADEMIC COOPERATION FOUNDATION, YONSEI UNIVERSITY, priority 2018, dated 2023)

Key:
human adipose stem cells [1] = assay: Tube formation assay using MATRIGEL; assay type: cell-based; settings: after 16 hours; FIG. 6(E)
Procedure: Human adipose stem cells were isolated via liposuction of subcutaneous fat, as described in a previous study: Briefly, the fat was washed with phosphate-buffered saline (PBS), 0.075% collagenase was added, and the mixture was incubated for 45 minutes at 37° C. with gentle shaking. After centrifugation, the pellet was filtered through a 100 am nylon mesh. Then, the cells were cultured with an essential medium containing alpha Minimum Essential Medium (α-MEM) (Hyclone, Logan, Utah, USA), 10% fetal bovine serum (FBS) (Gibco, Carlsbad, Calif., USA), and 1% antibiotics (Gibco) for three passages. Then, the medium was changed to contain α-MEM, 10% FBS, and 1% penicillin/streptomycin (Gibco), and the cells were cultured for four passages. The adipose stem cells at passages 5 to 7 were used for all experiments. Characterization of the adipose stem cells was performed using flow cytometry. The adipose stem cells were positive for CD44, CD73, CD90, CD105, human leukocyte antigen (HLA)-I, and podocalyxin-like protein (PODXL), and were negative for hematopoietic markers such as CD34 and CD45. A multipotent differentiation potential was examined, as described in a previous study; as a result, the adipose stem cells could be differentiated into adipocytes, osteocytes, and chondrocytes. […] The number of tubes was analyzed under a ZEISS™ Observer D1 microscope.

human adipose stem cells [2] = assay: Scratch wound-healing assay; assay type: cell-based; settings: for migration of the adipose stem cells, scratch wound-healing assay: IL-4 or IL-12B in serum-free medium for 3 days, FIG. 7 (B to E)
Procedure: (§1) Human adipose stem cells were isolated via liposuction of subcutaneous fat, as described in a previous study: Briefly, the fat was washed with phosphate-buffered saline (PBS), 0.075% collagenase was added, and the mixture was incubated for 45 minutes at 37° C. with gentle shaking. After centrifugation, the pellet was filtered through a 100 am nylon mesh. Then, the cells were cultured with an essential medium containing alpha Minimum Essential Medium (α-MEM) (Hyclone, Logan, Utah, USA), 10% fetal bovine serum (FBS) (Gibco, Carlsbad, Calif., USA), and 1% antibiotics (Gibco) for three passages. Then, the medium was changed to contain α-MEM, 10% FBS, and 1% penicillin/streptomycin (Gibco), and the cells were cultured for four passages. The adipose stem cells at passages 5 to 7 were used for all experiments. Characterization of the adipose stem cells was performed using flow cytometry. The adipose stem cells were positive for CD44, CD73, CD90, CD105, human leukocyte antigen (HLA)-I, and podocalyxin-like protein (PODXL), and were negative for hematopoietic markers such as CD34 and CD45. A multipotent differentiation potential was examined, as described in a previous study; as a result, the adipose stem cells could be differentiated into adipocytes, osteocytes, and chondrocytes. The adipose stem cells were maintained at 37° C. in a humidified 5% CO2 incubator.
The adipose stem cells were seeded into 6-well plates and cultured to confluence. A sterile 1 ml pipette tip was used to scratch the cell monolayer. The cultures were then washed with PBS to remove de-plated cells, and the cells were again cultured with udenafil, or IL-4, and IL-12B in a serum-free medium for 3 days. Cell migration into the scratched area (wound closure) was visualized using a ZEISS™ Observer D1 microscope. Multiple images were acquired per well, and the average cell number within the wound was monitored over 3 days.

IL-4 mRNA = assay: qPCR of IL-4 expression level in udenafil-treated adipose stem cells; assay type: cell-based; settings: adipose stem cells treated with 1 μM udenafil for 3 to 4 days, versus non-udenafil-treated adipose stem cells (Control); FIG. 3
Procedure: (§2) First, adipose stem cells were preconditioned with udenafil to prepare stimulated adipose stem cells. Adipose stem cells were inoculated on a […] and cultured. The following day, 1 μM udenafil was added to the culture medium and additional culture was performed for 3 to 4 days. Subsequently, adherent cultured adipose stem cells were detached with trypsin, and then obtained by centrifugation. The obtained adipose stem cells were prepared by being mixed with 100 μl of PBS.
(§3) Specifically, as performed in Example <1-1>, adipose stem cells were treated with udenafil and cultured. After completion of the culture, the cells were obtained and RNA was extracted from the cells by treatment with TRIZOL™ (Invitrogen, NY, USA). Using the extracted RNA as a template, cDNA was synthesized through RT-PCR using oligodT and HELIXCRIPT™ Thermo Reverse Transcription System (NANOHELIX, WI, USA). The synthesized cDNA and BrightGreen qPCR master mix-ROX (abm, NY, US) were added to 96-well qPCR assay Kit for identifying growth factors [RT^2 First Strand (DNA Synthesis Kit (QIAGEN, MD, USA)], to perform a qPCR reaction. The results obtained by performing the qPCR reaction were analyzed using a program which corresponds to the RT^2 First Strand cDNA Synthesis Kit and is provided by QIAGEN, and IL-4 and IL-12B expression levels in the udenafil-treated adipose stem cells were respectively identified.

IL-12B mRNA = assay: qPCR of IL-12B expression level in udenafil-treated adipose stem cells; assay type: cell-based; settings: adipose stem cells treated with 1 μM udenafil for 3 to 4 days, versus non-udenafil-treated adipose stem cells (Control); FIG. 3
Procedure: as §2, §3

human adipose stem cells [3] = assay: Transwell migration assay; assay type: cell-based; settings: migration 1 day; for migration of the adipose stem cells, transwell migration assay: IL-4 or IL-12B treatment for 3 days, FIG. 7 (B to E)
Procedure: as §1
The adipose stem cells were seeded into 60 mm plates and treated with udenafil IL-4, or IL-12B for 3 days. The adipose stem cells starved for 1 day (1.5×10^4cells/well) were suspended in a serum-free medium and seeded on the upper side of transwell membrane inserts (BD Falcon, CA, USA), which was pre-coated with MATRIGEL™ (1/60 dilution, BD MATRIGEL™ matrix, CA, USA). The normal serum With FBS was added in the lower side thereof as a chemoattractant. […] The inserts were stained with […] solution (Sigma-Aldrich) for 20 minutes, and the cell number was analyzed under a ZEISS™ Observer D1 microscope. Multiple images (15 to 20) were acquired per insert, and the average cell counts were calculated.

human adipose stem cells [4] = assay: Cell growth assay (live cell number, trypan blue); assay type: cell-based; settings: 7 days; for proliferation of the adipose stem cells (live cell number): IL-4 or IL-12B 100 ng/ml, FIG. 7(A)
Procedure: as §1
For cell growth assay, the adipose stem cells were seeded in 12-well plates, with 5×10^3 cells/well, treated with udenafil (0.1, 0.5, or 1 μM), and incubated for 7 days. The adipose stem cells were also seeded in 12-well plates, with 1×10^4 cells/well, treated with a synthetic peptide of IL-4 or IL-12B (100 ng/ml), and incubated for 7 days. The cells were then trypsinized, stained with trypan blue (Sigma-Aldrich, MO, USA), and counted each day using a hemocytometer.

[5] = tested on: dermal papilla cells (DP cells); assay: Growth of dermal papilla cells after treatment with IL-4 or IL-12B; assay type: cell-based; settings: FIG. 8
[6] = tested on: vibrissal hair follicle cells; assay: Vibrissal hair follicle culture, length of hair grown; assay type: cell-based, mouse; settings: 5 ng/ml or 20 ng/ml, 3 days culture, versus non-treated control; FIG. 5
Procedure: In addition, the vibrissal hair follicle of 5-week-old C57b1/6 mice was dissected to obtain hair follicle cells, and the hair follicle cells were transferred to 48-well plates. Then, treatment with 5 ng/ml or 20 ng/ml of an IL-4 peptide or an IL-12B peptide was performed and culture was performed for 3 days. After completion of the culture, the hair follicle tissue was photographed and a length of hair grown therefrom was measured.

C3H mice = assay: Hair growth effect of IL-4 or IL-12B peptide applied to dorsum of mice; assay type: in vivo, mouse; settings: 100 ng/ml applied to dorsum once a day for 13 to 14 days, FIG. 4; for maturation of hair follicle tissue: H&E staining
Procedure: Specifically, the dorsal hair of 6-week-old C3H mice was completely removed, and 100 ng/ml of an IL-4 peptide or an IL-12B peptide was applied to the dorsum of the mice once a day. It was identified whether the hair was growing while applying the IL-4 peptide or IL-12B peptide for 13 to 14 days. Then, a photograph was taken and the dorsal skin tissue was obtained.

Molecule: CCCOc1ccc(S(=O)(=O)NCCC2CCCN2C)cc1-c1nc(=O)c2c([nH]1)c(CCC)nn2C (centres unmarked) [udenafil]
- number of nascent tubes (tube-forming activity) (human adipose stem cells [1]): increases the number of nascent tubes
- ASC migration, scratch wound-healing assay (human adipose stem cells [2]; udenafil in serum-free medium for 3 days, FIG. 6 (B to D)): increases ASC migration in both assays in a dose-dependent manner
- IL-4 mRNA expression level (IL-4 mRNA): about 4 fold
- IL-12B mRNA expression level (IL-12B mRNA): about 6 fold
- ASC migration, transwell migration assay (human adipose stem cells [3]; udenafil treatment for 3 days, FIG. 6 (B to D)): increases ASC migration in both assays in a dose-dependent manner
- growth of adipose stem cells (live cell number) (human adipose stem cells [4]; udenafil 0.1, 0.5 or 1 μM, FIG. 6(A)): increases growth of adipose stem cells in a time- and dose-dependent manner

B1: IL-4 peptide: cytokine whose expression is increased in udenafil-treated adipose stem cells; called IL-4 peptide, synthetic peptide of IL-4, IL-4 protein (protein, UniProt P05112 25-153, looked up)
Interleukin-4: HKCDITLQEIIKTLNSLTEQKTLCTELTVTDIFAASKNTTEKETFCRAATVLRQFYSHHEKDTRCLGATAQQFHRHKQLIRFLKRLDRNLWGLAGLNSCPVKEANQSTLENFLERLKTIMREKYSKCSS
- growth of the DP cells [5]: increased growth of the DP cells
- migration of the adipose stem cells, scratch wound-healing assay (human adipose stem cells [2]): increase migration of the adipose stem cells in a dose-dependent manner
- length of hair grown from the hair follicle cells [6]: longer than that of the non-treated control
- migration of the adipose stem cells, transwell migration assay (human adipose stem cells [3]): increase migration of the adipose stem cells in a dose-dependent manner
- proliferation of the adipose stem cells (live cell number) (human adipose stem cells [4]): not
- hair growth effect (C3H mice): increased hair growth effect
- maturation of hair follicle tissue (C3H mice): significantly maturated

B2: IL-12B peptide: cytokine whose expression is increased in udenafil-treated adipose stem cells; called IL-12B peptide, synthetic peptide of IL-12B, IL-12B protein (protein, UniProt P29460 23-328, looked up)
Interleukin-12 subunit beta: IWELKKDVYVVELDWYPDAPGEMVVLTCDTPEEDGITWTLDQSSEVLGSGKTLTIQVKEFGDAGQYTCHKGGEVLSHSLLLLHKKEDGIWSTDILKDQKEPKNKTFLRCEAKNYSGRFTCWWLTTISTDLTFSVKSSRGSSDPQGVTCGAATLSAERVRGDNKEYEYSVECQEDSACPAAEESLPIEVMVDAVHKLKYENYTSSFFIRDIIKPDPPKNLQLKPLKNSRQVEVSWEYPDTWSTPHSYFSLTFCVQVQGKSKREKKDRVFTDKTSATVICRKNASISVRAQDRYYSSSWSEWASVPCS
- growth of the DP cells [5]: increased growth of the DP cells
- migration of the adipose stem cells, scratch wound-healing assay (human adipose stem cells [2]): increase migration of the adipose stem cells in a dose-dependent manner
- length of hair grown from the hair follicle cells [6]: longer than that of the non-treated control
- migration of the adipose stem cells, transwell migration assay (human adipose stem cells [3]): increase migration of the adipose stem cells in a dose-dependent manner
- proliferation of the adipose stem cells (live cell number) (human adipose stem cells [4]): increases proliferation of the adipose stem cells in a time- and dose-dependent manner
- hair growth effect (C3H mice): increased hair growth effect
- maturation of hair follicle tissue (C3H mice): significantly maturated
